From the supplement of paper PMC10567573

B1: TRIM63 (parent)
chain: FRCPTCRHEVIMDRHGVYGLQRNL

Variants of: B1
Experiment: protein stability index of a GFP-peptide fusion (GPS, HEK-293T) (PSI 1-6); higher = more stable
Details: c terminus: a fixed tail appended
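Further: lentivirally expressed fusions sorted by FACS into six bins by GFP to DsRed ratio, PSI derived from sequencing read proportions per bin multiplied by bin number.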

Variant	protein stability index
FRCQTCRHEVIMDRHGVYGLQRNL	3.65
FRCITCRHEVIMDRHGVYGLQRNL	3.9
FRCGTCRHEVIMDRHGVYGLQRNL	1.38
FRCRTCRHEVIMDRHGVYGLQRNL	2.18
FRCPTCRHEVIMDRTGVYGLQRNL	2.46
FRCPTCRHEVIMDRDGVYGLQRNL	2.08
FRCPTCRHEVIMDRFGVYGLQRNL	1.67
FRCPTCRHEVIMDRAGVYGLQRNL	1.67
FRCPTCRHEVIMDRMGVYGLQRNL	2.71
FRCPTCRHEVIMDRYGVYGLQRNL	2.49
FRCPTCRHEVIMDRHGDYGLQRNL	1.58
FRCPTCRHEVIMDRHGKYGLQRNL	2.19
FRCPTCRHEVIMDRHGAYGLQRNL	2.98
FRCPTCRHEVIMDRHGLYGLQRNL	2.08
FRCPTCRHEVIMDRHGPYGLQRNL	2.26
FRCPTCRHEVIMDRHGHYGLQRNL	2.23
FRCPTCRHEVIMDRHGMYGLQRNL	1.69
FRCPTCRHEVIMDRHGWYGLQRNL	1.8
FRCPTCRHEVIMDRHGQYGLQRNL	3
FRCPTCRHEVIMDRHGEYGLQRNL	1.43
FRCPTCRHEVIMDRHGTYGLQRNL	2.66
FRCPTCRHEVIMDRHGIYGLQRNL	2.41
FRCPTCRHEVIMDRHGYYGLQRNL	2.19
FRCPTCRHVVIMDRHGVYGLQRNL	3.23

Variant	protein stability index
FRCPTCRHPVIMDRHGVYGLQRNL	1.94
FRCPTCRHFVIMDRHGVYGLQRNL	2.14
FRCPTCRHHVIMDRHGVYGLQRNL	2.63
MRCPTCRHEVIMDRHGVYGLQRNL	2.72
GRCPTCRHEVIMDRHGVYGLQRNL	1.38
YRCPTCRHEVIMDRHGVYGLQRNL	1.96
KRCPTCRHEVIMDRHGVYGLQRNL	2.91
SRCPTCRHEVIMDRHGVYGLQRNL	2.62
ERCPTCRHEVIMDRHGVYGLQRNL	2.69
CRCPTCRHEVIMDRHGVYGLQRNL	2.44
PRCPTCRHEVIMDRHGVYGLQRNL	3.34
DRCPTCRHEVIMDRHGVYGLQRNL	2.76
FRCPTCRWEVIMDRHGVYGLQRNL	1.72
FRCPTCRDEVIMDRHGVYGLQRNL	1.77
FRCPTCRPEVIMDRHGVYGLQRNL	3.14
FRCPTCREEVIMDRHGVYGLQRNL	1.81
FRCPTCAHEVIMDRHGVYGLQRNL	2.63
FRCPTCFHEVIMDRHGVYGLQRNL	2.42
FRCPTCKHEVIMDRHGVYGLQRNL	3.15
FRCPTCGHEVIMDRHGVYGLQRNL	3.57
FRCPTCPHEVIMDRHGVYGLQRNL	2.36
FRCPTCMHEVIMDRHGVYGLQRNL	2.42
FRCPTCDHEVIMDRHGVYGLQRNL	3.28
FRCPTCLHEVIMDRHGVYGLQRNL	2.13

Variant	protein stability index
FRCPTCCHEVIMDRHGVYGLQRNL	2.24
FRCPTQRHEVIMDRHGVYGLQRNL	2.73
FRCPTFRHEVIMDRHGVYGLQRNL	1.63
FRCPTWRHEVIMDRHGVYGLQRNL	1.77
FRCPTVRHEVIMDRHGVYGLQRNL	2.51
FRCPTSRHEVIMDRHGVYGLQRNL	2.09
FRCPTCRHEVIMDRHGVYGLQRND	2.6
FRCPTCRHEVIMDRHGVYGLQRNM	2.03
FRCPTCRHEVIMDRHGVYGLQRNQ	2.26
FRCPTCRHEVIMDRHGVYGLQRNI	1.69
FRCPTCRHEVIMDRHGVYGLQRNA	2.34
FRCPTCRHEVIMDRHGVYGLQRNR	1.7
FRCPTCRHEVIMDRHGVYGLQRNG	2.99
FRCPTCRHEVIMDRHGVYGLQRNV	2.12
FRCPTCRHEVIMDRHGVYGLQRNS	2.47
FRCPTCRHEVIMDRHGVYGLQRNF	1.61
FRCPTCRHESIMDRHGVYGLQRNL	3.91
FRCPTCRHEYIMDRHGVYGLQRNL	2.05
FRCPTCRHEFIMDRHGVYGLQRNL	2.25
FRCPTCRHEKIMDRHGVYGLQRNL	3.42
FRCPTCRHEGIMDRHGVYGLQRNL	2.58
FRCPTCRHECIMDRHGVYGLQRNL	2.18
FRCPTCRHEQIMDRHGVYGLQRNL	1.8
FRCPTCRHERIMDRHGVYGLQRNL	2.41

Variant	protein stability index
FRCPTCRHENIMDRHGVYGLQRNL	3.46
FRCPTCRHEPIMDRHGVYGLQRNL	1.76
FRCPTCRHEEIMDRHGVYGLQRNL	1.91
FRCPTCRHEIIMDRHGVYGLQRNL	2.51
FRCPTCRHEVIMDRHGVYGLQRFL	2.02
FRCPTCRHEVIMDRHGVYGLQRPL	1.56
FRCPTCRHEVIMDRHGVYGLQRQL	2.67
FRCPTCRHEVIMDRHGVYGLQRKL	2.04
FRCPTCRHEVIMDRHGVYGLQRRL	2.54
FRCPTCRHEVIMDRHGVYGLQRML	1.47
FRCPTCRHEVIMDRHGVYGLQREL	2.05
FRCPTCRHEVIMDRHGVYGLQRCL	2.2
FRCPTCRHEVIMDRHGVYGLQHNL	2.17
FRCPTCRHEVIMDRHGVYGLQPNL	2.49
FRCPTCRHEVIMDRHGVYGLQQNL	2.24
FRCPTCRHEVIMDRHGVYGLQGNL	1.98
FRCPTCRHEVIMDRHGVYGLQANL	2.29
FRCPTCRHEVIMDRHGVYGLQINL	3.38
FRCPTCRHEVIMDRHGVYGLQTNL	2.08
FRCPTCRHEVIMDRHGVYGLQDNL	3.21
FRCPTCRHEVIMDRHGVYGLQFNL	1.84
FRCPTCRHEVIMDRHGVYGLQWNL	2.43
